Reference: publication PMC10397247

Assays:
[1] = target: T1, 4H3134-AA; assay: two-hybrid library CCmax;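 note: natural log of median RNA to DNA barcode read ratio; higher means stronger binding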
T1 chain: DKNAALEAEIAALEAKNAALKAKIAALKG

[2] = target: T2, 4H775-AA; assay: two-hybrid library CCmax; settings: mean of both orientations;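 note: natural log of median RNA to DNA barcode read ratio; higher means stronger binding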
T2 chain: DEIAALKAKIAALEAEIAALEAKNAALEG

[3] = target: T3, 4H3940-AA; assay: two-hybrid library CCmax; settings: mean of both orientations;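 note: natural log of median RNA to DNA barcode read ratio; higher means stronger binding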
T3 chain: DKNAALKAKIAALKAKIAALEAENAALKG

[4] = target: T4, 4H510-AA; assay: two-hybrid library CCmax; settings: mean of both orientations;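 note: natural log of median RNA to DNA barcode read ratio; higher means stronger binding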
T4 chain: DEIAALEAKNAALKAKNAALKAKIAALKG

[5] = target: T5, 4H3625-AA; assay: two-hybrid library CCmax; settings: mean of both orientations;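 note: natural log of median RNA to DNA barcode read ratio; higher means stronger binding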
T5 chain: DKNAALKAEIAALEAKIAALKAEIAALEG

[6] = target: T6, 4H816-AA; assay: two-hybrid library CCmax; settings: mean of both orientations;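 note: natural log of median RNA to DNA barcode read ratio; higher means stronger binding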
T6 chain: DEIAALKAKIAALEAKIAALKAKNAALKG

[7] = target: T7, 4H87-AA; assay: two-hybrid library CCmax; settings: mean of both orientations
T7 chain: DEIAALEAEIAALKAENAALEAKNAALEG

[8] = target: T8, 4H3409-AA; assay: two-hybrid library CCmax; settings: mean of both orientations
T8 chain: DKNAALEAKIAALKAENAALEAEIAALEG

[9] = target: T9, 4H390-AA; assay: two-hybrid library CCmax; settings: mean of both orientations
T9 chain: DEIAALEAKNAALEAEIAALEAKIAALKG

[10] = target: T10, 4H908-bH; assay: two-hybrid library CCNG1
T10 chain: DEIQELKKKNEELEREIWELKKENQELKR

[11] = target: T11, 4H4001-bH; assay: two-hybrid library CCNG1
T11 chain: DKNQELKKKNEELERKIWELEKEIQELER

[12] = target: T12, 4H687-bH; assay: two-hybrid library CCNG1
T12 chain: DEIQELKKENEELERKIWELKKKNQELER

[13] = target: T13, 4H918-bH; assay: two-hybrid library CCNG1
T13 chain: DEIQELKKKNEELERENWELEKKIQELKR

[14] = target: T14, 4H454-bH; assay: two-hybrid library CCNG1
T14 chain: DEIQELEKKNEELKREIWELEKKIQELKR

[15] = target: T15, 4H967-bH; assay: two-hybrid library CCNG1
T15 chain: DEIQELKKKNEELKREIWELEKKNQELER

[16] = target: T16, 4H883-bH; assay: two-hybrid library CCNG1
T16 chain: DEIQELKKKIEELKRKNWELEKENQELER

[17] = target: T17, 4H568-bH; assay: two-hybrid library CCNG1
T17 chain: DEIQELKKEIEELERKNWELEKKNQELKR

[18] = target: T18, 4H3782-bH; assay: two-hybrid library CCNG1
T18 chain: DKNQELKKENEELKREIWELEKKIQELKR

[19] = target: T19, 4H3843-bH; assay: two-hybrid library CCNG1
T19 chain: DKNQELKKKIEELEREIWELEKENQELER

[20] = target: T20, 4H717-bH; assay: two-hybrid library CCNG1
T20 chain: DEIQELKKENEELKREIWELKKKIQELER

[21] = target: T21, 4H462-bH; assay: two-hybrid library CCNG1
T21 chain: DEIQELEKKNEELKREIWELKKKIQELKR

[22] = target: T22, 4H607-bH; assay: two-hybrid library CCNG1
T22 chain: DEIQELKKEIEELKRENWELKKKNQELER

[23] = target: T23, 4H953-bH; assay: two-hybrid library CCNG1
T23 chain: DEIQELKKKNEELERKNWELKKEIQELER

[24] = target: T24, 4H797-bH; assay: two-hybrid library CCNG1
T24 chain: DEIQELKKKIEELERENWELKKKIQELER

[25] = target: T25, 4H3855-bH; assay: two-hybrid library CCNG1
T25 chain: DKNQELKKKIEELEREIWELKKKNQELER

[26] = target: T26, 4H754-bH; assay: two-hybrid library CCNG1
T26 chain: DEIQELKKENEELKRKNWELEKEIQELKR

[27] = target: T27, 4H72-bH; assay: two-hybrid library CCNG1
T27 chain: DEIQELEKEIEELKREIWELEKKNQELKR

B1: 4H3134-AA (peptide)
chain: DKNAALEAEIAALEAKNAALKAKIAALKG
Work on B1 yielded an interaction score [1] of -0.475, an interaction score [2] of -0.634 and an interaction score [3] of -1.19. It also gave an interaction score [4] of -2.21, an interaction score [5] of -0.878 and an interaction score [6] of -0.115. The interaction score [7] was -0.703, the interaction score [8] was 1.96 and the interaction score [9] was -0.0241.

B2: 4H3782-bH (peptide)
chain: DKNQELKKENEELKREIWELEKKIQELKR
B2 was tested, and the interaction score [10] was -1.78, the interaction score [11] was 0.67 and the interaction score [12] was 0.418. It also gave an interaction score [13] of -0.854, an interaction score [14] of 1.75 and an interaction score [15] of -0.136. The interaction score [16] was -0.532, the interaction score [17] was 0.164 and the interaction score [18] was 0.738. The interaction score [19] was 0.943, the interaction score [20] was 0.481 and the interaction score [21] was 1.71. For the same binder, the interaction score [22] was 0.717, the interaction score [23] was -0.497 and the interaction score [24] was -0.446. For the same binder, the interaction score [25] was 0.0378, the interaction score [26] was 0.775 and the interaction score [27] was 1.04.
